Source: US20080274950A1 (BABRAHAM INSTITUTE, published 2008)
Positions count from the first letter of the chain named. In names and notes the source's numbering stands. Blank lines part the entries; values can stand above or below the binder they belong to.

Columns and labels:
[1] = molecular target: the molecule itself; assay: bead aggregation assay, 1.25 mM CaCl2
Procedure: (§1) Dynabeads (Dynal Biotech) coupled to Protein A were coated with N-cadherin Fc at 1 μg/ml in calcium and magnesium-free HBSS containing 0.1% Tween 20, 1% FCS and 4 mM EDTA. Eppendorf tubes containing beads and fusion protein were rotated slowly for 1 hour at room temperature to allow binding to take place. The beads were then washed in the above assay buffer lacking EDTA and then resuspended in the same buffer supplemented with 1.25 mM CaCl₂. Beads were allowed to aggregate in a volume of 100 μl for 2 hours at 37° C. by slow rotation, in an eppendorf tube, at approximately 20 rpm. Aggregation was then assessed by light microscopy.
In the experiments described so far in this example, disruption of the salt bridge prevented intramolecular docking of Trp 2 in one or both components of the dimer. In an alternative strategy to prevent intramolecular docking, we removed Trp2 by introducing the mutation W2G or blocked the hydrophobic acceptor pocket with an isoleucine side chain projecting into the cavity using the mutation A801. N-cadherin Fc fusion proteins with these mutations were then tested against our panel of K562 transfectants (FIG. 17a). In keeping with the explanation given in FIG. 5, the W2G mutant acted as a strand acceptor and therefore adhered strongly to the E89A mutant whereas the A80I mutant was a strand donor and adhered to the GG extension mutant. […] In contrast, beads coated with the W2G or A801 mutants and tested separately clustered in twos and threes, whereas beads coated with the negative control mutant, D134A, were entirely monodisperse. To test whether all five extracellular domains of N-cadherin (EC1-EC5) are necessary for the strong adhesive interaction between the complementary mutants, we compared the adhesive activity of the W2G mutant prepared as a full length (EC1-EC5) Fc fusion protein with that of the same mutant prepared as a truncated construct containing only cadherin domains EC1 and EC2.

[2] = molecular target: T1, chicken N-cadherin Fc fusion protein with the pocket-blocking mutation A80I (chicken; human, UniProt P10288 165-728, A80I); assay: bead aggregation assay, Protein A Dynabeads coated separately and mixed, 1.25 mM CaCl2
T1 construct: extracellular domain; also called A80I mutant; not shown: hinge region, CH2 and CH3 domains of human IgG1 heavy chain (vector pIgSig)
T1 sequence (looked up): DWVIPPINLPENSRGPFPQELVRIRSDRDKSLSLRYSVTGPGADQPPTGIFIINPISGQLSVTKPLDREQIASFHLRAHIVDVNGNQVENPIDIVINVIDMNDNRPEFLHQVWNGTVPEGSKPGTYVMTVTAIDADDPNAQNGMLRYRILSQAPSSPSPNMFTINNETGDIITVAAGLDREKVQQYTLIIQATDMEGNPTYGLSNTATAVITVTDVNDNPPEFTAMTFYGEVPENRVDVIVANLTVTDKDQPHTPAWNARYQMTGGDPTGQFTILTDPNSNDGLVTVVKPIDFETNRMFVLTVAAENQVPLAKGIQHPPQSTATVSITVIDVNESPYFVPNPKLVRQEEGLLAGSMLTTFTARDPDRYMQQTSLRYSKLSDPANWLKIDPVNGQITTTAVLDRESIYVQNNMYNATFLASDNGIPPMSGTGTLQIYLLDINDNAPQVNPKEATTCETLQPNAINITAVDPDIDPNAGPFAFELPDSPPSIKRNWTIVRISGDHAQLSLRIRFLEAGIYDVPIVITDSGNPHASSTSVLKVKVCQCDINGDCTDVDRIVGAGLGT
Procedure: as §1
In the experiments described so far in this example, disruption of the salt bridge prevented intramolecular docking of Trp 2 in one or both components of the dimer. In an alternative strategy to prevent intramolecular docking, we removed Trp2 by introducing the mutation W2G or blocked the hydrophobic acceptor pocket with an isoleucine side chain projecting into the cavity using the mutation A801. N-cadherin Fc fusion proteins with these mutations were then tested against our panel of K562 transfectants (FIG. 17a). In keeping with the explanation given in FIG. 5, the W2G mutant acted as a strand acceptor and therefore adhered strongly to the E89A mutant whereas the A80I mutant was a strand donor and adhered to the GG extension mutant. […]

[3] = molecular target: T2, full length chicken N-cadherin with the mutation E89A expressed on K562 cells (chicken, UniProt P10288 165-912, E89A); assay: adhesion of K562 transfectants to coated N-cadherin Fc
T2 construct: whole, on cells; also called cells expressing the E89A mutation; K562 E89A
T2 sequence (looked up): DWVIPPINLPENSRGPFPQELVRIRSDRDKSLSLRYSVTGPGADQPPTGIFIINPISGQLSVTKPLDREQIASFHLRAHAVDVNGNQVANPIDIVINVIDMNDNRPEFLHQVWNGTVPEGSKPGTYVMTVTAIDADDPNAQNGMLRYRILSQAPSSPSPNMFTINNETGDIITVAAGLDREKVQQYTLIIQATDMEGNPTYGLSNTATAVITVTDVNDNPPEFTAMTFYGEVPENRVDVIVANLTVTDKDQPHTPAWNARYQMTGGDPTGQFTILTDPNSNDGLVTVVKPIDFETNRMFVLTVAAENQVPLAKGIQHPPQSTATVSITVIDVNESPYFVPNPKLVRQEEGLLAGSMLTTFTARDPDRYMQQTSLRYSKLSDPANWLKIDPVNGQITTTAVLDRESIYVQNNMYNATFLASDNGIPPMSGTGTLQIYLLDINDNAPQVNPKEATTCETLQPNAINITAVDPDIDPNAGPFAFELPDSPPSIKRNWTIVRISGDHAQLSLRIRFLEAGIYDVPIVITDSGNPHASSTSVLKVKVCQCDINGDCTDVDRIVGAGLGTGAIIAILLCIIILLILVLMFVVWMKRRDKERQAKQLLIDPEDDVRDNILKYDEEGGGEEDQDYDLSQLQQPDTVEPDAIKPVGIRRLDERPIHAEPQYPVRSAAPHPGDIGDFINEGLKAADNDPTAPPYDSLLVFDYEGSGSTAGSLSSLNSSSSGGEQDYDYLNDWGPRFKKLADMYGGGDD
Procedure: Adhesion tests were conducted substantially as described in Example 1. Briefly, K562 Cells or L cells transfected with wild type or mutant N-cadherin were allowed to settle for 45 minutes at 37° C. onto N-cadherin Fc fusion proteins coated at 1 μg/ml to a 96 well plate. Non-adherent cells were then washed off and residual adherent cells were quantitated by measuring acid phosphatase activity. Assays were conducted in quadruplicate and results are expressed as % cells adhering +/−SEM.

[4] = molecular target: the molecule itself; assay: gel filtration on Superdex-200, 1 mM CaCl2
From the text: Soluble N-cadherin-Fc fusion protein was obtained by transient transfection of Cos7 Cells as previously described (Corps et al., 2003). […] Soluble N-cadherin-Fc was routinely quantitated using an ELISA for Fc, standardised against purified cadherin-Fc fusion proteins.

binding result [2]: binds
binding result [3]: binds
B1: chicken N-cadherin-Fc fusion protein with the mutation W2G, dimeric (Fc fusion, UniProt P10288 165-728, looked up)
chain: T1 sequence (looked up) with W2G, I80A
notes: extracellular domain; Full length (EC1-EC5) Fc construct; also called W2G mutant; W2G protein; not shown: hinge region, CH2 and CH3 domains of human IgG1 heavy chain (vector pIgSig)
binding result [1]: binds

B2: monomeric chicken N-cadherin-Fc with the double mutation W2G,D134A (Fc fusion, UniProt P10288 165-728, looked up)
chain: T1 sequence (looked up) with W2G, I80A, D134A
notes: extracellular domain; also called the double mutant W2G,D134A; not shown: hinge region, CH2 and CH3 domains of human IgG1 heavy chain (vector pIgSig)
binding result [4]: no binding
